Assay results published in patent US20180002403A1 (published 2018).
Residue numbers refer to the chain shown, from its start. Like-named read-outs stand apart in the source and are kept apart here.

B1: clone 1.10 VH (VHH)
VHH: VQLVESGGGLVQPGGSLRLSCAASGFTFSSYRMYWVRQAPGKGLEWVASIEQDGSEEYYVDSVKGRFTISRDNAKKSLFLQMNSLRAEDTAVYYCAKGEILPLYFDYWGQGTLVTVSS
B2: clone 2.1 VH (VHH)
VHH: QVQLVQSGAEVKKPGASVKVSCKASGYPFTSYDINWVRQATGQSLEWMGWMNPNSGDTVYAQKFQGRVTMTRNTSISTAYMELSSLRSEDTAVYFCARGRRDDWKNNYWGQGTLVTVSS
B3: clone 2.2 VH (VHH)
VHH: B2 VHH with Q43R, N54T, S55N, D57N, G66D
B4: clone 1.1 VH (VHH)
VHH: EVQLVESGGGLVQPGGSLRLSCAASGFTFSSYSMYWVRQAPGKGLEWVANIKQDGSEKYYVDSVKGRFTISRDNAKNSLFLQMNSLRAEDTAVYYCAKGEILPLHFDYWGQGTLVTVSS
B5: clone 1.6 VH (VHH)
VHH: B4 VHH with N50E, K58Q, F80Y, H105Y

What was measured:
Assay in all cases: BIAcore
[1] = biological target: T1, Recombinant human IL-17A (Peprotech AF-200-17) (human, UniProt Q16552 24-155)
[2] = biological target: T2, recombinant IL-17RA (human, UniProt Q96F46 33-320)
[3] = biological target: T2, recombinant IL-17RA; remark: listed apart in the source
[4] = biological target: T1, Recombinant human IL-17A (Peprotech …); remark: listed apart in the source

T1 sequence (Q16552 24-155): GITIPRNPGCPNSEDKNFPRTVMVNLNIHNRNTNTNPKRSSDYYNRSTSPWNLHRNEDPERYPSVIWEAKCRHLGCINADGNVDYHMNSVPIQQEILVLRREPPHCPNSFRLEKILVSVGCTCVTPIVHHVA

Binder | Kd [1] | Kd [2] | Kd [3] | Kd [4]
B1 | 1 nM | – | – | –
B2 | – | 6 nM | 6 nM | –
B3 | – | 1.4 nM | – | –
B4 | 5 nM | – | – | 5 nM
B5 | 0.63 nM | – | – | –
